Changes are numbered by the printed parent chain. Names and notes keep the numbering of the source.
B1: AGE73scFv displayed on phage (scFv, V domains shown)
VH: QVKLQQSGPSLVKPSQTLSLTCSVTGDSITSGYWNWIRKFPGNKFEYLGYISYSGRTYYNPSLKSRISITRDTSKNQYYLQLNSVTTEDTATYYCSRPYYRYDYAIDYWGQGTTVTVSS
VL: DIELTQSPAIMSASLGERVTMTCTASSSVSSSYLHWYQQKPGSSPKLWIYSTSNLASGVPARFSSSGSGTSYSLTISRMEAEDAATYYCQQSRKVPYTFGGGTKLEIK
notes: VH of AGE73scFv; as the VH of m1; (Gly-Gly-Gly-Gly-Ser)3 linker; VL of AGE73scFv; as the VL of m1
B2: AGE112scFv displayed on phage (scFv, V domains shown)
VH: B1 VH with Q6E
VL: DIELTQSPTTMAASPGEKITITCSASSSISSNYLHWYQQKPGFSPKLLIYSTSNLASGVPARFSGSGSGTSYSLTISSMEAEDAATYYCQQWSSNPYTFGGGTKLEIK
notes: VH of AGE112scFv; (Gly-Gly-Gly-Gly-Ser)3 linker; VL of AGE112scFv
B3: 73MuL-V94A displayed on phage (scFv, V domains shown)
VH: B1 VH
VL: B1 VL with V95A
notes: as the VH of m1 (AGE73scFv); (Gly-Gly-Gly-Gly-Ser)3 linker; as the VL of m1 (AGE73scFv) with V94A; probably Kabat; source: second library, error-prone PCR of the VL of AGE73scFv
B4: AGE73scFv (scFv, V domains shown)
VH: B1 VH
VL: B1 VL
notes: VH of AGE73scFv, from the GA-KLH immunised mouse antibody library; (Gly-Gly-Gly-Gly-Ser)3 linker; VL of AGE73scFv, from the GA-KLH immunised mouse antibody library; the FLAG-tag lies on the N-terminal side of the hexahistidine-tag, so both are probably C-terminal of the scFv; also called anti-GA-pyridine scFv
B5: 73MuL-S56P displayed on phage (scFv, V domains shown)
VH: B1 VH
VL: B1 VL with S57P
notes: as the VH of m1 (AGE73scFv); (Gly-Gly-Gly-Gly-Ser)3 linker; as the VL of m1 (AGE73scFv); probably Kabat; source: second library, error-prone PCR of the VL of AGE73scFv
B6: 73MuL-S30P displayed on phage (scFv, V domains shown)
VH: B1 VH
VL: B1 VL with S31P
notes: as the VH of m1 (AGE73scFv); (Gly-Gly-Gly-Gly-Ser)3 linker; as the VL of m1 (AGE73scFv); source: second library, error-prone PCR of the VL of AGE73scFv
B7: AGE78scFv displayed on phage (scFv, V domains shown)
VH: B1 VH with Q6E, Q81H, S96T, Y100H, Y108F
VL: DIELTQSPAIMSASPGEKVTMTCSASSSVSYMHWYQQKPGFSPKLLIYRTSNLASGVPARFSGSGSGTSYSLTIGTMEAEDVATYYCQQGSSIPYTFGGGTKLEIK
notes: VH of AGE78scFv; (Gly-Gly-Gly-Gly-Ser)3 linker; VL of AGE78scFv

Key:
[1] = biological target: T1, glycolaldehyde (GA)-modified bovine serum albumin (Bos taurus, UniProt P02769, modified by glycolaldehyde (GA-pyridine forms on the ε-amino group of Lys residues); sites not given); experiment: ELISA; phage ELISA: GA-BSA coated on a 96-well plate, scFv display phage clones added for 1 h at 25 °C, detected with HRP-conjugated anti-M13 antibody; settings: one partner purified
T1 construct: bovine serum albumin; The scFvs are directed against GA-pyridine, a modified lysine; also called GA-BSA; source: BSA (25 mg/mL) incubated with 50 mM glycolaldehyde at 37 °C for 12 h, dialysed with PBS
T1 sequence (P02769 25-607): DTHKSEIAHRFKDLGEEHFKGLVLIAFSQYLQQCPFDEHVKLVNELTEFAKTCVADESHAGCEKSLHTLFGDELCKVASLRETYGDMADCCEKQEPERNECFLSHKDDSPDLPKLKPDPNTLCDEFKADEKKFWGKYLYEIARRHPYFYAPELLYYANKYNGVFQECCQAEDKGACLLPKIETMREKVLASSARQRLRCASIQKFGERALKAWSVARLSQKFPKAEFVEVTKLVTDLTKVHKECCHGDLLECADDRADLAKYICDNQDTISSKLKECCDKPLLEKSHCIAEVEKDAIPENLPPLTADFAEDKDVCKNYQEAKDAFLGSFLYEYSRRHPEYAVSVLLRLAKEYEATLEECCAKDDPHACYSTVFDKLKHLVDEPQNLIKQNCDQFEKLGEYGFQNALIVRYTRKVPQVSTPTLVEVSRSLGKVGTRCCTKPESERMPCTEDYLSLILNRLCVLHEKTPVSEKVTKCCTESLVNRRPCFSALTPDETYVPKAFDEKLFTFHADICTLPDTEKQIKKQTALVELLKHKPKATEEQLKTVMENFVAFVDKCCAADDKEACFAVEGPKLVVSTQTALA

[2] = biological target: T2, glucose-derived AGE-modified BSA (Bos taurus, UniProt P02769, glucose-derived AGE modification; sites not given); experiment: ELISA; competitive ELISA of purified AGE73scFv with AGE-modified BSAs as competitors; coated antigen and conditions not told in the text shown (Figure S2); settings: both partners purified
T2 construct: bovine serum albumin; also called Glc-BSA
T2 sequence (P02769 25-607): as above

[3] = biological target: T1, glycolaldehyde (GA)-modified bovine …; experiment: as above; settings: both partners purified
[4] = biological target: T3, glyceraldehyde-modified BSA (Bos taurus, UniProt P02769, modified by glyceraldehyde; sites not given); experiment: as above; settings: both partners purified
T3 construct: bovine serum albumin; also called GCA-BSA
T3 sequence (P02769 25-607): as above

Binder	binding result [1]	other results
B1	binds	
B2	binds	
B3	binds	
B4		binding result [2]: binds; binding result [3]: binds; binding result [4]: binds
B5	binds	
B6	binds	
B7	binds	
